Values of other authors, collected in patent US8853185B2, “Coferons and methods of making and using them” (Cornell University, priority 2008, dated 2014).

Key:
Conditions in all cases: read-out: DISSOCIATION CONSTANT (Kd)
p53 = p53 (Homo sapiens, UniProt P04637)
NF2 = target: T1, NF2 (Homo sapiens, UniProt P35240)
T1 sequence (P35240 1-595): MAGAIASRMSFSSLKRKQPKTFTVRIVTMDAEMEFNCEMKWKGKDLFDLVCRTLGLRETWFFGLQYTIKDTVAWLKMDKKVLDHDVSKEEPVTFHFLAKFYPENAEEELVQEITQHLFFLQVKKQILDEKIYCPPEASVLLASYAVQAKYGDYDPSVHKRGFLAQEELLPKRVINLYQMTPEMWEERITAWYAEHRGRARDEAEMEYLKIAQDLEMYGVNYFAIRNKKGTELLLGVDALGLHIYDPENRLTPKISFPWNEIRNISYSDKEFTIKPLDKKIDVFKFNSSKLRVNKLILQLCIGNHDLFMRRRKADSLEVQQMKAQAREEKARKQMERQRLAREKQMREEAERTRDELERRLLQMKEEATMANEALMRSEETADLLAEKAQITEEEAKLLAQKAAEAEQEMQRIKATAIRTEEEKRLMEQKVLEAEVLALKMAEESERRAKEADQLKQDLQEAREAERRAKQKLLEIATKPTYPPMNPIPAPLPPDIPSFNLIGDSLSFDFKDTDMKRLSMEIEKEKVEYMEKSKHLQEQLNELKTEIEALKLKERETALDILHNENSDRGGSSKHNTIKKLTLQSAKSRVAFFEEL

GABP β = GABP β (Homo sapiens, UniProt Q06547)
MKK4 = target: T2, MKK4 (Homo sapiens, UniProt P45985)
T2 sequence (P45985 1-399): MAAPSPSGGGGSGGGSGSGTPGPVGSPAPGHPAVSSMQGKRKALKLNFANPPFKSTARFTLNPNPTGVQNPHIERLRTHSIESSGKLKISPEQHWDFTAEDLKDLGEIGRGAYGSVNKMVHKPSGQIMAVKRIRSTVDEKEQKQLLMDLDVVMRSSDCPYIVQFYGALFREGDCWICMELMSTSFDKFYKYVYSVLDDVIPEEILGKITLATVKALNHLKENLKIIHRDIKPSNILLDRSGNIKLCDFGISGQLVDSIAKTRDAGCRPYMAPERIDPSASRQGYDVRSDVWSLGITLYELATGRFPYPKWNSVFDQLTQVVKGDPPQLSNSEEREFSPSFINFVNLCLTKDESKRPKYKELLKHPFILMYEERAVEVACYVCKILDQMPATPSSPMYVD

ASK1 = target: T3, ASK1 (Homo sapiens, UniProt Q99683)
T3 sequence (Q99683 1-1374): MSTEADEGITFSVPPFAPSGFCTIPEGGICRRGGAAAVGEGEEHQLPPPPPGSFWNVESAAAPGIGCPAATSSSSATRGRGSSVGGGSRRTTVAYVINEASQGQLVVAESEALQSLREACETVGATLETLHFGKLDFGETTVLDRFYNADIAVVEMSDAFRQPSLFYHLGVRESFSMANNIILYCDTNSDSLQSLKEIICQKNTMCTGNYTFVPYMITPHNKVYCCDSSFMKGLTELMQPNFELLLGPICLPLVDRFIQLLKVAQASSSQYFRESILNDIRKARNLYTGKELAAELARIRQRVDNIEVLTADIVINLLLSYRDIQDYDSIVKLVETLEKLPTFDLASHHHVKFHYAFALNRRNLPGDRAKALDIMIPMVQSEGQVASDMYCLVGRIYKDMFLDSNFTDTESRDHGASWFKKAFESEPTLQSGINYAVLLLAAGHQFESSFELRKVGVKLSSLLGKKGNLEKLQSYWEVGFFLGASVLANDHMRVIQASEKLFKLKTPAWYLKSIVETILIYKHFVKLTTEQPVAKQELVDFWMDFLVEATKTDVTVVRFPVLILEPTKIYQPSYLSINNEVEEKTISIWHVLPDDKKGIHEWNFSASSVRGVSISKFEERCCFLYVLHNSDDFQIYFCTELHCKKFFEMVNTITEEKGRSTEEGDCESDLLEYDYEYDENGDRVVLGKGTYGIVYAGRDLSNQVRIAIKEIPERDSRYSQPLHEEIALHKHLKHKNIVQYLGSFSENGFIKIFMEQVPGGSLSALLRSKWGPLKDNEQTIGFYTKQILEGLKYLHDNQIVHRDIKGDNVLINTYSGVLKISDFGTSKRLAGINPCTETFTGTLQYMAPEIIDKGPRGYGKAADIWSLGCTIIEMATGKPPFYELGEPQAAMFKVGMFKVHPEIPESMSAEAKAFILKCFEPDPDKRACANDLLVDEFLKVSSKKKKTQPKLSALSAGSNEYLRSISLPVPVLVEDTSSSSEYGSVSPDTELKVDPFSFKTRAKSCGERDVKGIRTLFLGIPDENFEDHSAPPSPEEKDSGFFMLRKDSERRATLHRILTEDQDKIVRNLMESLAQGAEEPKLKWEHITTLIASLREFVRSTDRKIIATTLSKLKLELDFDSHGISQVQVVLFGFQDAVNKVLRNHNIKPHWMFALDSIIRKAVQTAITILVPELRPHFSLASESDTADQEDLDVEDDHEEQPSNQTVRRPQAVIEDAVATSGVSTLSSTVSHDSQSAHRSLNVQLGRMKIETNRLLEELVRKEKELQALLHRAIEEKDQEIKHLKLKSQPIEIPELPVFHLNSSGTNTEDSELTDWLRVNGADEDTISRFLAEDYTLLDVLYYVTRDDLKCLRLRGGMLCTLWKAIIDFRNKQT

GABP β, sequence (Q06547 whole entry): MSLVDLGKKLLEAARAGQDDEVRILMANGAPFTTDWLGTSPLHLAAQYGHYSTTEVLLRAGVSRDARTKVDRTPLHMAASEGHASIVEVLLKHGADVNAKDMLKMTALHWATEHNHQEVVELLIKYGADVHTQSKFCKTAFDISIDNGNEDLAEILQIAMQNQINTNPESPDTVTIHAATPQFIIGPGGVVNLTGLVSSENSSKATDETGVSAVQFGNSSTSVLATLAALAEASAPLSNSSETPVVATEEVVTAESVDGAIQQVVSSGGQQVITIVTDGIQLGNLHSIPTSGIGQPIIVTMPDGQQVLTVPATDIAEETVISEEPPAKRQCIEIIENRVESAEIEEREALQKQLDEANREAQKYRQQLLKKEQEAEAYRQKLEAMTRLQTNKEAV
p53, sequence (P04637 whole entry, species assumed): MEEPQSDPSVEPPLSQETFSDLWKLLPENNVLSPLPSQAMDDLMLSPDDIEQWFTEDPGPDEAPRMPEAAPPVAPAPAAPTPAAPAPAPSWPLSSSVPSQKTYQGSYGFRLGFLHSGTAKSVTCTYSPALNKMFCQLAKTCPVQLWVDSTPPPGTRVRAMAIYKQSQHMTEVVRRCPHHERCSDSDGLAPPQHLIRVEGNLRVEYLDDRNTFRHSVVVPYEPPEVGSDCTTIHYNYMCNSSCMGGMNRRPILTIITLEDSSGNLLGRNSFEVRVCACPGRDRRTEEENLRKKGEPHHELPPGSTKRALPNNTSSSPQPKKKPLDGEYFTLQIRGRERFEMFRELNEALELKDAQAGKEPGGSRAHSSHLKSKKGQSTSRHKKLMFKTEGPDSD

B1: HmtSSB: binding partner of p53 (protein, UniProt Q04837 17-148, looked up)
Single-stranded DNA-binding …: ESETTTSLVLERSLNRVHLLGRVGQDPVLRQVEGKNPVTIFSLATNEMWRSGDSEVYQLGDVSQKTTWHRISVFRPGLRDVAYQYVKKGSRIYLEGKIDYGEYMDKNNVRRQATTIIADNIIFLSDQTKEKE
In the case of B1, the Kd (p53) is listed as 12700 nM.

B2: MPP1: binding partner of NF2 (protein, UniProt Q00013 2-466, looked up)
55 kDa erythrocyte membrane …: TLKASEGESGGSMHTALSDLYLEHLLQKRSRPEAVSHPLNTVTEDMYTNGSPAPGSPAQVKGQEVRKVRLIQFEKVTEEPMGITLKLNEKQSCTVARILHGGMIHRQGSLHVGDEILEINGTNVTNHSVDQLQKAMKETKGMISLKVIPNQQSRLPALQMFMRAQFDYDPKKDNLIPCKEAGLKFATGDIIQIINKDDSNWWQGRVEGSSKESAGLIPSPELQEWRVASMAQSAPSEAPSCSPFGKKKKYKDKYLAKHSSIFDQLDVVSYEEVVRLPAFKRKTLVLIGASGVGRSHIKNALLSQNPEKFVYPVPYTTRPPRKSEEDGKEYHFISTEEMTRNISANEFLEFGSYQGNMFGTKFETVHQIHKQNKIAILDIEPQTLKIVRTAELSPFIVFIAPTDQGTQTEALQQLQKDSEAIRSQYAHYFDLSLVNNGVDETLKKLQEAFDQACSSPQWVPVSWVY
For B2, the Kd (NF2) is given as 3.7 nM.

B3: GABP β: binding partner of GABP β (protein, UniProt Q06547 2-395, looked up)
GA-binding protein subunit …: SLVDLGKKLLEAARAGQDDEVRILMANGAPFTTDWLGTSPLHLAAQYGHYSTTEVLLRAGVSRDARTKVDRTPLHMAASEGHASIVEVLLKHGADVNAKDMLKMTALHWATEHNHQEVVELLIKYGADVHTQSKFCKTAFDISIDNGNEDLAEILQIAMQNQINTNPESPDTVTIHAATPQFIIGPGGVVNLTGLVSSENSSKATDETGVSAVQFGNSSTSVLATLAALAEASAPLSNSSETPVVATEEVVTAESVDGAIQQVVSSGGQQVITIVTDGIQLGNLHSIPTSGIGQPIIVTMPDGQQVLTVPATDIAEETVISEEPPAKRQCIEIIENRVESAEIEEREALQKQLDEANREAQKYRQQLLKKEQEAEAYRQKLEAMTRLQTNKEAV
In the case of B3, the Kd (GABP β) is listed as 600 nM.

B4: JNK3: binding partner of MKK4 (protein, UniProt P53779 1-464, looked up)
Mitogen-activated protein …: MSLHFLYYCSEPTLDVKIAFCQGFDKQVDVSYIAKHYNMSKSKVDNQFYSVEVGDSTFTVLKRYQNLKPIGSGAQGIVCAAYDAVLDRNVAIKKLSRPFQNQTHAKRAYRELVLMKCVNHKNIISLLNVFTPQKTLEEFQDVYLVMELMDANLCQVIQMELDHERMSYLLYQMLCGIKHLHSAGIIHRDLKPSNIVVKSDCTLKILDFGLARTAGTSFMMTPYVVTRYYRAPEVILGMGYKENVDIWSVGCIMGEMVRHKILFPGRDYIDQWNKVIEQLGTPCPEFMKKLQPTVRNYVENRPKYAGLTFPKLFPDSLFPADSEHNKLKASQARDLLSKMLVIDPAKRISVDDALQHPYINVWYDPAEVEAPPPQIYDKQLDEREHTIEEWKELIYKEVMNSEEKTKNGVVKGQPSPSGAAVNSSESLPPSSSVNDISSMSTDQTLASDTDSSLEASAGPLGCCR
For B4, the Kd (MKK4) is listed as 35000 nM.

B5: ASK1: binding partner of ASK1 (protein, UniProt Q99683 1-1374, looked up)
Mitogen-activated protein …: T3 sequence (Q99683 1-1374)
For B5, the Kd (ASK1) is listed as 220 nM.
